{
  "source": "paper doi:10.1101/815886",
  "conditions_in_all_cases": "remark: other sources report otherwise",
  "key": {"[1]": {"target": "T1, human CTC1-STN1-TEN1 (CST) heterotrimeric complex (human), Q2NKJ3", "T1 chain 1": "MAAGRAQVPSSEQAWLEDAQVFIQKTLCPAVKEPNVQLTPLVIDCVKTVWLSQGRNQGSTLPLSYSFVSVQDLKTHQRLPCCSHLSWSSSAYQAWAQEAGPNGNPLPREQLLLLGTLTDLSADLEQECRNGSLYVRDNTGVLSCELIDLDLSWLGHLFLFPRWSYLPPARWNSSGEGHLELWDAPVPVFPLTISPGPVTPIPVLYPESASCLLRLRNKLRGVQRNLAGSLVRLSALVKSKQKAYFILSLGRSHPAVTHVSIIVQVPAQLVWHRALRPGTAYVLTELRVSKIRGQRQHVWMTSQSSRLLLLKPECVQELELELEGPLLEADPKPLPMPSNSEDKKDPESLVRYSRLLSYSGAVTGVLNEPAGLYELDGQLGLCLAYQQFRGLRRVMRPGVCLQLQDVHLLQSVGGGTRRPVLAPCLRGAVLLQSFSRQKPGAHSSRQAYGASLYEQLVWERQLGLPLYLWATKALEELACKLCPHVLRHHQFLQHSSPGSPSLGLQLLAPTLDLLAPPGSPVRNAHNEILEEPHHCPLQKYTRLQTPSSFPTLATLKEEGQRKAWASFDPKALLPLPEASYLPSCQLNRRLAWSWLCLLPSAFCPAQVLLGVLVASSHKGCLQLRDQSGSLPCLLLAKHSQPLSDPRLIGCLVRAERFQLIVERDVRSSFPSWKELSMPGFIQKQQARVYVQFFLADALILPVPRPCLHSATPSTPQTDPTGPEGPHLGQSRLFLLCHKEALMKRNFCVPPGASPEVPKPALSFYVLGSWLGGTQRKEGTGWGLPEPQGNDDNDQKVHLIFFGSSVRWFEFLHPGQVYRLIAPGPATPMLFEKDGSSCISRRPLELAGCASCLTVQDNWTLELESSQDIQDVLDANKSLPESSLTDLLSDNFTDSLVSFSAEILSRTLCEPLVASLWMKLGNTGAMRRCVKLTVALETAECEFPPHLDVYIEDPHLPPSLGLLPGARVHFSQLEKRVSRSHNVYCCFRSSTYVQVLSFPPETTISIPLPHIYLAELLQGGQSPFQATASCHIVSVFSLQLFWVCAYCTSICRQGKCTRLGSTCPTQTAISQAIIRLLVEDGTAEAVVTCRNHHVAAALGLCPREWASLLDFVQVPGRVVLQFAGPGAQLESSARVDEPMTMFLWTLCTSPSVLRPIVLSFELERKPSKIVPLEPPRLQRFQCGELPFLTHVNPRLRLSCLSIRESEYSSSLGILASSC", "T1 chain 2": "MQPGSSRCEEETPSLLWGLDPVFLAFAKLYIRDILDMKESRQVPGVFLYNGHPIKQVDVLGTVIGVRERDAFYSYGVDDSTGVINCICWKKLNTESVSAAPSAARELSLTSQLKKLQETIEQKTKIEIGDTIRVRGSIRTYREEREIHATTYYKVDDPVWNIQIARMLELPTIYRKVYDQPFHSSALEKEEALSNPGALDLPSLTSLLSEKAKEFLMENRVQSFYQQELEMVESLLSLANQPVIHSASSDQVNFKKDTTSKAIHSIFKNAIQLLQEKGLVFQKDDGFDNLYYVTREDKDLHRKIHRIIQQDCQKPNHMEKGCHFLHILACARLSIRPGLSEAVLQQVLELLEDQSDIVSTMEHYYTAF", "T1 chain 3": "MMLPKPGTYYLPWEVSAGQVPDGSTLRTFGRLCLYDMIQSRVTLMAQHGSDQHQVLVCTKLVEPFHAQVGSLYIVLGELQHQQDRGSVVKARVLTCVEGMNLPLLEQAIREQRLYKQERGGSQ", "assay": "cryo-EM structure"}, "[2]": {"target": "T1, human CTC1-STN1-TEN1 (CST) …", "assay": "negative-stain EM single-particle analysis"}, "[3]": {"target": "T1, human CTC1-STN1-TEN1 (CST) …", "assay": "negative-stain EM single-particle analysis"}, "[4]": {"target": "T1, human CTC1-STN1-TEN1 (CST) …"}},
  "note": "Where “and” joins values, the source holds several entries; their conditions need not be identical. Equal values may be shown once. Read-outs that look alike come from different tables or passages of the source.",
  "data": [
    {"binder": "human CTC1-STN1-TEN1 (CST) heterotrimeric complex, Q2NKJ3;Q9H668;Q86WV5 (complex) chain 1: MAAGRAQVPSSEQAWLEDAQVFIQKTLCPAVKEPNVQLTPLVIDCVKTVWLSQGRNQGSTLPLSYSFVSVQDLKTHQRLPCCSHLSWSSSAYQAWAQEAGPNGNPLPREQLLLLGTLTDLSADLEQECRNGSLYVRDNTGVLSCELIDLDLSWLGHLFLFPRWSYLPPARWNSSGEGHLELWDAPVPVFPLTISPGPVTPIPVLYPESASCLLRLRNKLRGVQRNLAGSLVRLSALVKSKQKAYFILSLGRSHPAVTHVSIIVQVPAQLVWHRALRPGTAYVLTELRVSKIRGQRQHVWMTSQSSRLLLLKPECVQELELELEGPLLEADPKPLPMPSNSEDKKDPESLVRYSRLLSYSGAVTGVLNEPAGLYELDGQLGLCLAYQQFRGLRRVMRPGVCLQLQDVHLLQSVGGGTRRPVLAPCLRGAVLLQSFSRQKPGAHSSRQAYGASLYEQLVWERQLGLPLYLWATKALEELACKLCPHVLRHHQFLQHSSPGSPSLGLQLLAPTLDLLAPPGSPVRNAHNEILEEPHHCPLQKYTRLQTPSSFPTLATLKEEGQRKAWASFDPKALLPLPEASYLPSCQLNRRLAWSWLCLLPSAFCPAQVLLGVLVASSHKGCLQLRDQSGSLPCLLLAKHSQPLSDPRLIGCLVRAERFQLIVERDVRSSFPSWKELSMPGFIQKQQARVYVQFFLADALILPVPRPCLHSATPSTPQTDPTGPEGPHLGQSRLFLLCHKEALMKRNFCVPPGASPEVPKPALSFYVLGSWLGGTQRKEGTGWGLPEPQGNDDNDQKVHLIFFGSSVRWFEFLHPGQVYRLIAPGPATPMLFEKDGSSCISRRPLELAGCASCLTVQDNWTLELESSQDIQDVLDANKSLPESSLTDLLSDNFTDSLVSFSAEILSRTLCEPLVASLWMKLGNTGAMRRCVKLTVALETAECEFPPHLDVYIEDPHLPPSLGLLPGARVHFSQLEKRVSRSHNVYCCFRSSTYVQVLSFPPETTISIPLPHIYLAELLQGGQSPFQATASCHIVSVFSLQLFWVCAYCTSICRQGKCTRLGSTCPTQTAISQAIIRLLVEDGTAEAVVTCRNHHVAAALGLCPREWASLLDFVQVPGRVVLQFAGPGAQLESSARVDEPMTMFLWTLCTSPSVLRPIVLSFELERKPSKIVPLEPPRLQRFQCGELPFLTHVNPRLRLSCLSIRESEYSSSLGILASSC chain 2: MQPGSSRCEEETPSLLWGLDPVFLAFAKLYIRDILDMKESRQVPGVFLYNGHPIKQVDVLGTVIGVRERDAFYSYGVDDSTGVINCICWKKLNTESVSAAPSAARELSLTSQLKKLQETIEQKTKIEIGDTIRVRGSIRTYREEREIHATTYYKVDDPVWNIQIARMLELPTIYRKVYDQPFHSSALEKEEALSNPGALDLPSLTSLLSEKAKEFLMENRVQSFYQQELEMVESLLSLANQPVIHSASSDQVNFKKDTTSKAIHSIFKNAIQLLQEKGLVFQKDDGFDNLYYVTREDKDLHRKIHRIIQQDCQKPNHMEKGCHFLHILACARLSIRPGLSEAVLQQVLELLEDQSDIVSTMEHYYTAF chain 3: MMLPKPGTYYLPWEVSAGQVPDGSTLRTFGRLCLYDMIQSRVTLMAQHGSDQHQVLVCTKLVEPFHAQVGSLYIVLGELQHQQDRGSVVKARVLTCVEGMNLPLLEQAIREQRLYKQERGGSQ", "values": [
      {"measurement": "stoichiometry N", "setting": "[1]", "value": 10},
      {"measurement": "stoichiometry N", "setting": "[2]", "value": "4 and 2"},
      {"measurement": "stoichiometry N", "setting": "[3]", "value": 10},
      {"measurement": "stoichiometry N", "setting": "[4]", "value": 10}
    ]}
  ]
}
